Reference: patent US20230242675A1 (SHANGHAI EPIMAB BIOTHERAPEUTICS, published 2023)

T1: human TGFβ2 (human, UniProt P61812 303-414)
T1 construct: also called TGFβ isoform 2; TGFβ2 (Cat. No. CJ79, Novoprotein)
T1 sequence (looked up): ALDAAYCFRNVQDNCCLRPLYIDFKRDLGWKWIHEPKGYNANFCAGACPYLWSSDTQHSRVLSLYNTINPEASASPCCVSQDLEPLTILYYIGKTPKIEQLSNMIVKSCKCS

B1: FIT1012-7a TGFβ/PD-L1 bispecific binding protein (bispecific antibody, human IgG1, kappa)
heavy: not shown
chain: TIPPHVQKSVNNDMIVTDNNGAVKFPQLCKFCDVRFSTCDNQKSCMSNCSITSICEKPQEVCVAVWRKNDENITLETVCHDPKLPYHDFILEDAASPKCIMKEKKKPGETFFMCSCSSDECNDNIIFSEEYNTSNPDASTKGPSVFPLAPSSKSTSGGTAALGCLVKDYFPEPVTVSWNSGALTSGVHTFPAVLQSSGLYSLSSVVTVPSSSLGTQTYICNVNHKPSNTKVDKKVEPKSC
light: DIQLTQSPSFLSASVGDRVTITCKASQDVGTAVAWYQQKPGKAPKLLIYWASTRHTGVPSRFSGSGSGTEFTLTISSLQPEDFATYYCQQYSSYPYTFGQGTKLEIKRTVAAPSVFIFPPSDEQLKSGTASVVCLLNNFYPREAKVQWKVDNALQSGNSQESVTEQDSKDSTYSLSSTLTLSKADYEKHKVYACEVTHQGLSSPVTKSFNRGEC
notes: Six-chain protein; anti-PD-L1 moiety from HuEM0005-90-1 with G55A; four TGFβR2(ECD) traps
B2: HuEM0005-90-19 (antibody, human IgG1, V domains shown)
VH: EVQLVQSGAEVKKPGASVKVSCKTSGYTFTSHSINWVRQATGQGLEWMGYMYIGNGYTEYNEKFKGRVTMTSNTSISTAYMELSSLRSEDTAVYYCAKITPVVAPYVMDYWGQGTSVTVSS
VL: DIVMTQSPSFLSASVGDRVTITCKASQDVGTAVAWYQQKPGKAPKLLIYWASTRHTGVPDRFTGSGSGTDFTLTISSLQPEDFATYYCQQYSSYPYTFGQGTKLEIK

Assays:
[1] = biological target: T2, human PD-L1/His fusion protein (human, UniProt Q9NZQ7 19-239); assay: BLI Octet Red, binding protein on AHC sensor, PD-L1-his in solution
T2 sequence (Q9NZQ7 19-239 limits assumed): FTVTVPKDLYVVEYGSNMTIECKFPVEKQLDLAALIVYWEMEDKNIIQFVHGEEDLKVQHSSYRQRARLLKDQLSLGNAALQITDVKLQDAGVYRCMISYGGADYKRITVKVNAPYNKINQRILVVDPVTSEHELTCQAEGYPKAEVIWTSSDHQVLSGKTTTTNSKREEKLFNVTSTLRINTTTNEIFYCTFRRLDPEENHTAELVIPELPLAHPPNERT
Experimental: Sensors were then dipped into running buffer (1×pH 7.2 PBS, 0.05% Tween 20, 0.1% BSA) for 60 seconds to check baseline. Binding was measured by dipping sensors into a series diluted concentration of recombinant human PD-L1-his protein. Dissociation was followed by dipping sensors into running buffer for 1200 seconds. The association and dissociation curves were fitted to a 1:1 Langmuir binding model using ForteBio Data Analysis software (Pall). The equilibrium dissociation constant KD (M) of the reaction between antibodies and related target proteins was then calculated from the kinetic rate constants using the formula KD=koff/kₒₙ.

human TGFβ1 = biological target: T3, human TGFβ1 (human, UniProt P01137 279-390); assay: ELISA: human TGFβ1 coated (1 µg/ml), binding protein titrated 0.0006-10 nM, anti-human IgG Fc-HRP, OD450
T3 construct: also called TGFβ isoform 1; TGFβ1 (Cat. No. CA59, Novoprotein)
T3 sequence (P01137 279-390 limits assumed): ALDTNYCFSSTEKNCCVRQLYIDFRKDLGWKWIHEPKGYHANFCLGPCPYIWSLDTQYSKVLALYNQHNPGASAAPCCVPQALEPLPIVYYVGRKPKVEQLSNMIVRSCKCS
Experimental: (§1) Accordingly, each of the wells of the ELISA microplates provided a reaction mixture to test the ability of a particular binding protein at a particular concentration to bind to a particular TGFβ isoform. […] Plates were washed three times in washing buffer (PBS containing 0.05% Tween 20) and blocked for 1 hour at 37° C. with 200 μl per well of blocking buffer (1% BSA in PBS containing 0.05% Tween 20). […] The wells containing the various binding mixtures were incubated at 37° C. for 1 hour to permit binding to TGFβ protein on the surface of the wells. Thereafter, the wells were washed four times with washing buffer, and anti-human IgG Fc HRP (Sigma, Catalog No. A0170) was diluted 1:10000 and added to the wells at 100 μl per well to detect binding protein that was bound to TGFβ protein present on the surface of a well. The plates were incubated for 1 hour at 37° C. and washed four times with washing buffer. 100 μl of tetramethylbenzidine (TMB) chromogenic solution were added per well. Following color development, the reaction was stopped with 1 N HCl, and absorbance at 450 nm (OD450) was measured on a VARIOSKAN™ LUX microplate reader (Thermo Scientific™).

human TGFβ2 = biological target: T1, human TGFβ2; assay: ELISA: human TGFβ2 coated (1 µg/ml), binding protein titrated 0.0006-10 nM, anti-human IgG Fc-HRP, OD450
Experimental: as §1

[2] = biological target: T4, biotinylated human PD-L1 protein (ACROBiosystems, H82E5) (human, UniProt Q9NZQ7 19-238, biotinylated (site not stated)); assay: dual-binding ELISA: human TGFβ1 coated, 5 nM binding protein bound to it, biotinylated human PD-L1 titrated 0.0006-10 nM (axis labelled Ab (nM)), streptavidin-HRP, OD450; the EC50 is of the titrated PD-L1
T4 construct: also called biotinylated PD-L1
T4 sequence (Q9NZQ7 19-238 limits assumed): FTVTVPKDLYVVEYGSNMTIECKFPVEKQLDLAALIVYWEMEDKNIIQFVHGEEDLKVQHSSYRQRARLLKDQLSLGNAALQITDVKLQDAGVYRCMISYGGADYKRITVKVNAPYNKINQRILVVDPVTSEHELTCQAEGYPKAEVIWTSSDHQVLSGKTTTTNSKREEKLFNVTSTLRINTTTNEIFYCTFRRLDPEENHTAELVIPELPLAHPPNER
Experimental: (§2) Briefly, ELISA plates were incubated overnight at 4° C. with 100 μl of a human TGFβ isoform diluted in PBS buffer, pH 7.4, at 1 μg/ml, to allow the human TGFβ isoform to coat (adsorb to) the surface of the wells. Plates were washed three times in washing buffer (PBS containing 0.05% Tween 20) and blocked for 1 hour at 37° C. with 200 μl per well blocking buffer (1% BSA in PBS containing 0.05% Tween 20). […] The wells were washed four times with washing buffer, and Streptavidin-HRP (Merck, RABHRP3) was diluted 1:10000 and added to the wells at 100 μl per well. The plates were incubated for 1 hour at 37° C. and washed four times in washing buffer. 100 μl of tetramethylbenzidine (TMB) chromogenic solution were added per well.

[3] = biological target: T4, biotinylated human PD-L1 protein …; assay: dual-binding ELISA: human TGFβ2 coated, 5 nM binding protein bound to it, biotinylated human PD-L1 titrated 0.0006-10 nM (axis labelled Ab (nM)), streptavidin-HRP, OD450; the EC50 is of the titrated PD-L1
Experimental: as §2

[4] = biological target: T4, biotinylated human PD-L1 protein …; assay: dual-binding ELISA: human TGFβ3 coated, 5 nM binding protein bound to it, biotinylated human PD-L1 titrated 0.0006-10 nM (axis labelled Ab (nM)), streptavidin-HRP, OD450; the EC50 is of the titrated PD-L1
Experimental: as §2

[5] = biological target: T2, human PD-L1/His fusion protein; assay: BLI off-rate; test group 4
Experimental: (§3) Briefly, antibodies were characterized for affinities and binding kinetics by Octet®RED96 biolayer interferometry (Pall ForteBio LLC). Antibodies were captured by Anti-hIgG Fc Capture (AHC) Biosensors (Pall) at a concentration of 100 nM for 30 seconds. Sensors were then dipped into running buffer (1×pH 7.2 PBS, 0.05% Tween 20, 0.1% BSA) for 60 seconds to check baseline. Binding was measured by dipping sensors into a single concentration of recombinant human PD-L1/His fusion protein (Novoprotein). Dissociation was followed by dipping sensors into running buffer for 1200 seconds. The association and dissociation curves were fitted to a 1:1 Langmuir binding model using ForteBio Data Analysis software (Pall). […] The off-rate ratio serves as a data normalization. Accordingly, in each test group, the off-rate ratios of the humanized antibodies can be compared with that of the chimeric antibody, and the off-rate ratios of each of the humanized antibodies can be compared to one another within all test groups.

[6] = biological target: T2, human PD-L1/His fusion protein; assay: BLI Octet RED96, antibody on AHC sensor, single conc. PD-L1/His; test group 4; test group 4
Experimental: as §3

Binder	Kd [1]	EC50 (human TGFβ1)	EC50 (human TGFβ2)	EC50 [2]	EC50 [3]	EC50 [4]	Off-Rate Ratio to that of EM0005-90c [5]	koff [6]
B1	< 0.01 nM	0.374 nM	0.833 nM	0.275 nM	0.262 nM	0.262 nM		
B2							146%	0.00328 s⁻¹
